The text below walks through data of article PMC3689669.

Test [1] concerns the target GST-HK10_(544–563), GST fusion of the human K10 C-terminal tail region (UniProt P13645). Nature of the test: SPR; BIAcore X, 25°C; GST-HK10(544–563) (500 nM) captured on immobilised goat anti-GST IgG, GST alone on the reference cell; SpsD passed over in increasing concentrations, 5 µl/min; KD from equilibrium response. A general note: In SPR one partner is held on a chip, and binding of the other changes the refractive index at the surface.

Another test has as its target Human fibrinogen (human) (UniProt P02671). Nature of the test: SPR; BIAcore X, 25°C; ligand covalently immobilised on CM5 chip; SpsD passed over in increasing concentrations without regeneration, 5 µl/min, PBS with 0.005% Tween 20; KD from equilibrium response against concentration.
For test [2], the target named is Human plasma fibronectin (human). Described as above.
Test [3] has as its target α-elastin, a heterogeneous mixture of soluble peptides obtained from human lung (human). Described as above.
In test [4] the target is Canine fibrinogen (canine) (UniProt P68213). The description is as above.
For test [5], the target named is N-terminal fragment of fibronectin (N29) containing the five N-terminal type I modules (human). Put plainly: ELISA; Fn (1 µg/well) and Fn fragments (250 ng/well) coated; SpsD167–519 in solution, detected with anti-SpsD37–519 antibody; FnBPB163–480 as control, detected with anti-FnBPB163–480 IgG. In general terms: An ELISA detects its analyte on a solid surface through an enzyme-linked reagent.

Test [6] concerns the target Recombinant fibronectin fragment, residues 1266–1908 (extra domain B plus type III modules 8–13 and the initial region of module 14) (UniProt P02751). The test is described as above.
In test [7] the target is GST-Fbgγ_(395–411), GST fusion of the human Fbg γ-chain sequence (human) (UniProt P02679). Put plainly: ELISA; GST-Fbg γ chain or GST coated on microtiter wells; increasing concentrations of SpsD167–519; detected with anti-6-His IgG.
Test [8] deals with Mouse cytokeratin 10 (residues 1–570) (mouse) (UniProt P02535). Nature of the test: ELISA; mouse K10 proteins, GST-HK10(544–563) or GST coated on wells; increasing concentrations of SpsD167–519; detected with anti-SpsD37–519 IgG.
Sequence of Mouse cytokeratin 10 (residues 1–570) (mouse) (P02535 whole entry, the tested form may be a part): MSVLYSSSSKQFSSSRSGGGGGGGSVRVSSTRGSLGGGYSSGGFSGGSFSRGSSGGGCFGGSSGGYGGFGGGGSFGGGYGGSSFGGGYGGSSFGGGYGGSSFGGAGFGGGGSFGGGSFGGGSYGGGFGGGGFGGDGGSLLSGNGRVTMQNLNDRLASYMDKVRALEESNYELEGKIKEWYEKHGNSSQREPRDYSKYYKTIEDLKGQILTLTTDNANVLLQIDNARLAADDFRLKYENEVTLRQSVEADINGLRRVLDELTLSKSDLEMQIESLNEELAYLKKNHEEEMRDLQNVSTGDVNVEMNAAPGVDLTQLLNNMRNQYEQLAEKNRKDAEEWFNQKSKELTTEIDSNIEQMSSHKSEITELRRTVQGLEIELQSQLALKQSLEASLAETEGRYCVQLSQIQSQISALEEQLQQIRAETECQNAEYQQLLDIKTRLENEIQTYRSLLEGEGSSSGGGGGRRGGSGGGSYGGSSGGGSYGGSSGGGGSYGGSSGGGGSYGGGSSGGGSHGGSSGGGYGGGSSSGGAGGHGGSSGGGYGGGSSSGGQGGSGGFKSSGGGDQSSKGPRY
Test [9] has as its target Mouse cytokeratin 10 C-terminal tail region (MK10_(454–570)) (mouse) (UniProt P02535). The description is as above.
The next test deals with Human plasma fibronectin. Put plainly: ELISA. The conditions noted are these: value read at the highest concentration, 20 µM protein added; immobilized Fn coated in bicarbonate buffer overnight; parent: est. 1.7; read off a plot.
Test [10] concerns the target GST-HK10_(544–563), GST fusion of the human K10 C-terminal tail region (UniProt P13645). Nature of the test: ELISA. The conditions noted are these: value read at the highest concentration, 20 µM protein added; immobilized K10 (panel title GST-HK10 544-563) coated in bicarbonate buffer overnight; parent: est. 1.2; read off a plot.
For test [11], the target named is α-elastin, a heterogeneous mixture of soluble peptides obtained from human lung. Put plainly: ELISA. The conditions noted are these: value read at the highest concentration, 20 µM protein added; immobilized α-elastin coated in bicarbonate buffer overnight; parent: est. 1.8; read off a plot.
Test [12] concerns the target Human fibrinogen, P02671-2;P02675;P02679-2. Put plainly: ELISA. The conditions noted are these: value read at the highest concentration, 16 µM protein added; immobilized human Fbg coated in bicarbonate buffer overnight; parent: est. 1.5; read off a plot.

Sequence of GST-HK10_(544–563), GST fusion of the human K10 C-terminal tail region (P13645 544-563): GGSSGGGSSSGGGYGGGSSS
Sequence of Human fibrinogen (human) (P02671 other isoform, or with tags, fused parts or gaps, chain 1 of 3): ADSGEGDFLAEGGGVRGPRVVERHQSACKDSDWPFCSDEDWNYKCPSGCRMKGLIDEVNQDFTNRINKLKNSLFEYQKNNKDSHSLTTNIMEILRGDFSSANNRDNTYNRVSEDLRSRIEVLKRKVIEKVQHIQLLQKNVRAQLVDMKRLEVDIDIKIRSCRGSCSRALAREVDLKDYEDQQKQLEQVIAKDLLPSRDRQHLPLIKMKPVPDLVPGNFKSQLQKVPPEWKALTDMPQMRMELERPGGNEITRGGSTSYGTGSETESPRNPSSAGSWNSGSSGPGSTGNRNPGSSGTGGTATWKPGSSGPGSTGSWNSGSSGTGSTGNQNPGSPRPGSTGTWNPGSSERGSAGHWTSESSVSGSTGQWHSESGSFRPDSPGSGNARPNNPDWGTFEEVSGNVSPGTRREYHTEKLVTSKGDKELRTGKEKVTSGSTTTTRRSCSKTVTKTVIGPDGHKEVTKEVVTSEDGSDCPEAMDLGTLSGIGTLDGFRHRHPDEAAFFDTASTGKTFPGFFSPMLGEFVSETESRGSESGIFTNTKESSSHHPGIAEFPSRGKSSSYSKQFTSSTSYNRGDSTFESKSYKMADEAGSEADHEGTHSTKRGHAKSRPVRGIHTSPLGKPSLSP
Sequence of Human fibrinogen (human) (P02675 31-491, chain 2 of 3, further chain): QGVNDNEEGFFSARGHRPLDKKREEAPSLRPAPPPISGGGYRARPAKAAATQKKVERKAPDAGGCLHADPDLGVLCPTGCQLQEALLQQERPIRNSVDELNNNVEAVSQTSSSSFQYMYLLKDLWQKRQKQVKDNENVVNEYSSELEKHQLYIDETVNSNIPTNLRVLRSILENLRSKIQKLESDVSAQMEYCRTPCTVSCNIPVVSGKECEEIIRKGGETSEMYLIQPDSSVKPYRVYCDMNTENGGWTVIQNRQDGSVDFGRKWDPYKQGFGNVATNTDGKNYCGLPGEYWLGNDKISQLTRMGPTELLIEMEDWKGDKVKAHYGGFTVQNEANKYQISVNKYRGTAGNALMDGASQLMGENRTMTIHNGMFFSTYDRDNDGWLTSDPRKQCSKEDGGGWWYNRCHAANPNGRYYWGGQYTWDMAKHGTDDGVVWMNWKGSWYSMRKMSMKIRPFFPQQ
Sequence of Human fibrinogen (human) (P02679 other isoform, or with tags, fused parts or gaps, chain 3 of 3, further chain): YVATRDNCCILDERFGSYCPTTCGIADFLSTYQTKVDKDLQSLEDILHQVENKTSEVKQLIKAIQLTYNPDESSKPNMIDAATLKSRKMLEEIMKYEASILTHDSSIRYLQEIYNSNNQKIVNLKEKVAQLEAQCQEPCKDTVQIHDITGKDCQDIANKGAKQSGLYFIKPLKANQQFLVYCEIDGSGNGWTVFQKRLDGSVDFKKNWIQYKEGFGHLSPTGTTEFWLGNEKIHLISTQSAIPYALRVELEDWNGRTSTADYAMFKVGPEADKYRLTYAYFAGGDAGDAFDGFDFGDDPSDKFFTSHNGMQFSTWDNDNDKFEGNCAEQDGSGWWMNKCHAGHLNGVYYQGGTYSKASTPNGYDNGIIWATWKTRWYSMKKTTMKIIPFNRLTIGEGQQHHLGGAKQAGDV
Sequence of Recombinant fibronectin fragment, residues 1266–1908 (extra domain B plus type III modules 8–13 and the initial region of module 14) (P02751 1266-1908): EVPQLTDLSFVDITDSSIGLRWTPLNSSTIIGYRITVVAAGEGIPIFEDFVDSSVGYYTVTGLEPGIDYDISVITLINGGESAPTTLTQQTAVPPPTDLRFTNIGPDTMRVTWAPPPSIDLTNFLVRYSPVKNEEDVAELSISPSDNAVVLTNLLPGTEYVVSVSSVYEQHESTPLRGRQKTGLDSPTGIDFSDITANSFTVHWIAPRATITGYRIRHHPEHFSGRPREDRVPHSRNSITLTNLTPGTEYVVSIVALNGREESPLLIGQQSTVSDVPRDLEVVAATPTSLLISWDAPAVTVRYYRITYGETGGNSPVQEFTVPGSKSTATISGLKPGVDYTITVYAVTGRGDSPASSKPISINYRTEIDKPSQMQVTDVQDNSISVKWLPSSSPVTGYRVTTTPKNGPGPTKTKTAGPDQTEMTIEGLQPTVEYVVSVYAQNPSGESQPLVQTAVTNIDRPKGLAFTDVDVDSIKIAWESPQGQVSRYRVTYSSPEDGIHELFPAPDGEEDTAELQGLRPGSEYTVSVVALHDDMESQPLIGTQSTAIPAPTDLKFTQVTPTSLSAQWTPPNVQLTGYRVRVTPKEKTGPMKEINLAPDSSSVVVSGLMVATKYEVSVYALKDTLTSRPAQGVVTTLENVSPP
Sequence of Mouse cytokeratin 10 C-terminal tail region (MK10_(454–570)) (mouse) (P02535 454-570): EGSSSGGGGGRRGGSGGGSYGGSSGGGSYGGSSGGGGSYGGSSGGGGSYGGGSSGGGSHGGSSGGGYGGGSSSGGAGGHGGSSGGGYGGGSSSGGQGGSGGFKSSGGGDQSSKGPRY

On to “SpsD_(37–519), A domain (N1N2N3 region) of SpsD from S. pseudintermedius strain 326 (domain or fragment)”, for which the Kd came out at 0.906 µM in test [1]; 0.38 µM with Human fibrinogen (human); 2.35 µM in [2]; 1.2 µM in test [3]; 0.367 µM in test [4].
“SpsD_(167–519), N2N3 subdomains of the A domain of SpsD from S. pseudintermedius strain 326 (domain or fragment)”: the EC50 was found to be 2.21 µM in [5]; 1.97 µM in [6]; 0.32 µM in test [7]; 1.02 µM in test [8]; 1.2 µM in test [9]. Moreover, the Kd stood at 0.84 µM in [1]; 0.36 µM in the test with Human fibrinogen (human); 2.16 µM in test [2]; 1.02 µM in test [3]; 0.341 µM in [4].
Take “SpsD_(167–519), N2N3 subdomains of the A domain of SpsD from S. pseudintermedius strain 326 F288A”: the response in the test with Human plasma fibronectin came out at 1.6 A490; in [10] it was 0.97 A490; in [11] it was 0.67 A490; in test [12] it was 0.11 A490.

The Kd is the free concentration of one partner at which half of the binding sites on the other are occupied at equilibrium, for simple one-to-one binding. Broadly, the EC50 is the concentration at which the effect is half-maximal.
